B1: TPR t1 (parent)
chain: GACCAAUCUGCCCUCAGAGCUCGAGAACAUCUUCGGAUGCAGAGGAGGCAGGCUUCGGUGGCGCGAUAGCGCCAACGUCCUCAACCUCCAAUGCAUCCCACCACAUGAUGAUGCCUGAAGAGCCUUGGUUUUUUG

Variants of: B1
Assay: polymerase ribozyme fitness, log enrichment relative to wild type (log ratio); higher = more active; in vitro selection for triplet polymerase activity
Summary of the method: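 Streptavidin-bead capture of gel-excised extended constructs, followed by RT-PCR, closed a single triplicate in vitro selection round. That round began by annealing PCR-built, transcribed mutant libraries of each subunit of a heterodimeric triplet polymerase ribozyme with a biotinylated primer, the partner subunit and triplets, then incubating them frozen at −7 °C. After Illumina sequencing of inputs and outputs, genotypes needed ≥10 input reads and ≥1 read per output. Fitness is the base-2 logarithm of genotype enrichment over wild-type enrichment, using inverse-variance-weighted replicate averages.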

In order of rising “polymerase ribozyme fitness (log ratio)” value:
1. GACCAAUCUGCCCUCAGAGCUCGAGAACAUAUUCGGAUGCAGAGGAGGCAGGCUUCGGUGGCGCGAUAGCGUCAACGUCCUCAACCUCCAAUGCAUCCCACCACAUGAUGAUGCCUGAAGAGCCUUGGUUUUUUG [C31A C72U]  -5.82
2. GACCAAUCUGCCCUCAGAGAUCGAGAACAUCUUGGGAUGCAGAGGAGGCAGGCUUCGGUGGCGCGAUAGCGCCAACGUCCUCAAUCUCCCAUGCAUCCCACCACAUGAUGAUGCCUGAACAGCCUUGGUUUUUUG [C20A C34G C85U A90C G120C]  -5.64
3. GACCAAUCUGCCCUCAGAGCUCGAGAACAUCUUCGGAUGCAGAGGAGGCAGGCUUCGGUGGCGCGAUAGCGCCAACGUCCUCAACCUCCGAUGCAUCCCACAACAUGAUGAUGCCUAAAGAGCCUUGGUUUUUUG [A90G C102A G117A]  -5.32
4. GACCAAUCUGCUCUCAGAGCUCGAGUACAUCUUCGGAUCCAGAGGAGGCAGGCUUCGGUGGCGCGAUAGCGCCAACGUCCUCAACCUCCAAUGCAUCCCACCACAUGAUAAUGCCUGAAGAGCCUUGGUUUUUUG [C12U A26U G39C G110A]  -5.25
5. GACCAAUCUGCCCUCAGAGCUCGAGAACAUCUUCGGAUGCGCAGGCGGCAGGCAUCGGUUGCGCGAUAGCGCCAACGUCCUCAACCUCCAAUGCAUCCCACCACAUGAUAAUGCCUGAAGAGCCUUGGUUUUUUG [A41G G42C A46C U54A G60U G110A]  -4.92
6. GACCAAUCUGCCCUCAGAGCUCGAGAACAUCUUCGGAUGCAGAGGAGGCAGGCUUCGGUGGCGCGAUAGCGCCAACGUCGUCAACCUCCAAUGCAUCCCACCACAUGAUGAUGCCUGAAGAGCGUUGGUUUUUUG [C80G C124G]  -4.49
7. GACCAAUCUGCACUCAGAGCUCGAGAACAUCUUGGGAUGCAGAGGAGGCAGGCUUCGGUGGCGCGAUAGCGCCAACGUCCUCAACCUCCAAUGCAUCCCACCACAUGAUGAUGCCUGAAAAGCCUUGGUUUUUUG [C12A C34G G120A]  -4.45
8. GACCAAUCUGCCCUCAGAACUCGAGAACAUCUUCGGAUGCAGAGGAAGCAGGCUUCGGUGGCGCGAUAGCGCCAACGUCCUCAACCUCCAAUGCAUCCCACCACAUGAUGAUGCCUGAAGAGCCUUGGUUUUUUG [G19A G47A]  -4.12
9. GACCAAUCUGCCCUAAGAGCUCGAGAACAUCUUCGGAUGCAGAGGAGGCAGGCUUCGGUGGCGCGAUAGCGCCAACGUCCUCAACAUCCAAUGCAUCCCACCACAUGAUGAUGCCUGAAGAGCCUUGGAUUUUUG [C15A C86A U129A]  -4.12
10. GACCAAUCGCCCCUCAGAGCUCGAGAACUUCUUCGGAUGCAUGGGCGGCAGGCUUCGGUGGCGCGAUAGCGCCAACGUCCUCAACCUCCAAUGUAUCCCACCACAUGAUGAUGCCUGAAGAGCCUUGGUUUUUUG [U9G G10C A29U G42U A43G A46C C94U]  -4.04
11. GACCAAUCUGCCCUCAGAGAUCGAGAACAUCUUCGGAUGCAGAGGAGUCAGGCUCCGGUGGCGCGAUAGCGCCAACGUCCUCAACCUCCAAUGCAUCCCACCACAUGAUGAUGCCUGAAGAGCCUUGGUUUUUUG [C20A G48U U55C]  -3.81
12. GACCAAUCUGCCCUCAGAGCUCGAGAACAUCUUCGGAUGCAGAGGAGGCAGGCUUCGGUGACGCGAUAGCGCCAACGUCUUCAACCUCCAAUGCAUCCCACCACUUGAUGAUGCCUGAAGAGCCUUGGUUUUUUG [G61A C80U A105U]  -3.51
13. GACCAAUCUGCCCUCAGAGCUCGAGAACAUCUUCGGAUGCAGAGGAGGCAGGCUUGGGUGGCGCGAUAGCGCCAACGUUCUCAACCUCCAAAGCAUCCCACCACAUGAUGAUGCCUGAAGAGCCUUGGUUUUUUG [C56G C79U U92A]  -3.45
14. GACCAAUCUGCCCUCAGAGCUCGAGAACAUCUUCGGAUGCAGAAGAGGCAUGCUUCGGUGGCGCGAUAGCGCCAACGUCCUCAACCUCCAAUGCAUCCCACCACAUGAUGAUGCCUGAAGGGCCUUGGUUUUUUG [G44A G51U A121G]  -3.43
15. GACCAUUCUGCGCUCAGAGCUCGAGAACAUCUUCGGAUGCAGAGGAGGCAGGCUUCGGUGGCGCGAUAGCGCCAACGUCCUCAACCUCGAAUGCAUCCCACCACCGGAUGAUGCCUGAAGAGCCUUGGUUUUUUG [A6U C12G C89G A105C U106G]  -3.35
16. GACCAAUCUGCCCUUAGAGCUCGAGAACAUCUUCGGAUGCAGAGGAGGCAGGCAUCGGAGGCGCGAUAGCGCCAACGUCAUGAACCUCCAAUGCAUCCCACCACAUGAUGAUGCCUGAAGAGUCUUGGUUUUUUG [C15U U54A U59A C80A C82G C123U]  -3.3
17. GACCAAUCUGCCCACAGAGCUCGAGAACAUCUUCGGAUGCAGAGGAGGCAGGCUUCGGUGGCGCGAUAGCGCCAACGUCCUCAAUCUCCAAUGCAUCCCACCACAUGAUGAUGCCUGAAGAGCCUUGGUUUUUUG [U14A C85U]  -2.79
18. GACCAAUCUGCCCUCAGAGCUCGAGAACAUCUUCGGAUGCAGAGGAGGCAGGCUUCGGUGGCGCGAUAGCCCCAACGUCCUCAACCUCCAAUGCAUCCCCCCACAUGAUGAUGCCUGAAGAGCCUUGGUUUUUUG [G71C A100C]  -2.78
19. GACCAAUCUGCCCUCAGAGCUCGAGAACAUCUUCGGAUGCAGAGGAGGCAGGCUUCGGUGGCACGAUAGCGCCAACGUCCUCAACCUCCAAUGCAUCCCACCACAUGAUAAUGCCUGAAGAGCCUUGGUUUUUUG [G63A G110A]  -2.72
20. GACCAAUCUGCCCUCUGAGCUCGAGAACAUCUUCGGAUGAAGAGGAGGCAGGCCUCGGUAGCGCGAUAGCGCCAACGUCCUCAACCUCCAAUGCAUCCCACCACAUGAUGAUGCCUGAAGAGCCUUGGUUUUUUG [A16U C40A U54C G60A]  -2.69
21. GACCAAUCUGCCCUGUGAGCUCGAGAACAUCUUCGGAUGCAGAGGAGGCAGGCUUCGGUGUCGCGAUAGCGCCAACGUCCUCAACCUCCAAUGCAUCCCACCACAUGAUGAUGCCUGAAGAUUCUUGGUUUUUUG [C15G A16U G61U G122U C123U]  -2.55
22. GACCAAUCUGCCCUCAGAGCUCGAGAACAUCUUCGGAUGCAGAGGACGCAGGCUUCGGUGGCGCGAUAGCGCCAACGUCCUCAACCUCCAAUGCAUCCCACCACAUGAUGAUACCUGAAGAGCCUUGGUUUUUUG [G47C G113A]  -2.47
23. GACCAAUCUGCCCUCAGAGCUCGAGAACAUCUUCGGAUGCAGAGGAGGCAGGCUUCGGUGGCGCGAUAUCGCCAACGUCCUCAACCUCCAAUGCAUCGCACCACAUGAUGAUGCCUGAAGAGCCUUGGUUUUUUG [G69U C98G]  -2.4
24. GACCAAUCUGCCCAUAGAGCUCGAGAACAUCUUCGGAUGCAGAGGAGGCAGGCUUCGGUGGCGCGAUAGCGCCAACGUCCUCAACCUUCAAUGCACCCCACCACAUGAUGAUGCCUGAAUAGCCUUGGUUUUUUG [U14A C15U C88U U96C G120U]  -1.94
25. GACCAAUCUGGCCUCAGAGCUCGAGAAGAUCUUCGGAUGCAGAGGAGGCAGGCUUCGGUGGCGCGAUAGCGCCAACGUCCUCAACAUCCAAUGCAUCCCACCACAUGAUGAUGCCUGAAGAGUCUUGGUUUUUUG [C11G C28G C86A C123U]  -1.94
26. GACCAAUCUGCCCUCAGAGCUCGAGAACAUCUUCGUAUGCAGAGGAGGCAGGCUUAGGUGGCGCGAUAGCGCCAACGUCCUCAACCUCCAAUGCAUCCCACCACAUGAUGAUGCCUGAAGAGCCUUGGUUUAUUG [G36U C56A U132A]  -1.83
27. GACCAAUCUGCCCUCAGAGCUCGAGAACAUCUUCGGAUGCAGAGGAGGCAGGCUUCGGUGACGCGAUAGCGCCAACGCCCUCAACCUCCAAUGCAUCCCACCAAAUGAUGAUGCCUGAAGAGCCUUGGUUUUUUG [G61A U78C C104A]  -1.61
28. GACCAAUCUGCCCUCAGAGCUCGAGAACAUCUUCGGAUGCAGUGGAGGCAGGCUUCGGUGACGCGAUAGCGCCAACGUCCUCAACCUCCAAACCAUCCCACCACAUGAUGAUGCCUGAAGAGCCUUGGUUUUUUG [A43U G61A U92A G93C]  -1.44
29. GACCAAUCUUCCCUCAGAGCUCGAGAACAUCCUCGGAUGCAGAGGAGGCAGGCUUAGGUGGCGCGAUAGCGACAACGUCCUCAACCUCCAAUGCAUCCCACCACAUGAUGAUGCCUGAAGAGCCUUGGUUUUUUG [G10U U32C C56A C72A]  -1.43
30. GACCACUCUGCCCUCAGAGCUCGAGAACAUCUUCGGAUGCAGAGGAGGCAGGCUUCGGUGACGCGAUAGCGCCAACGUCCUCAACCUCCAAUGCAUCCCACCACAUGAUGAUGCUUGAAGAGCCUUGGUUUUUUG [A6C G61A C115U]  -1.31
31. GCCCAAUCUGCCCUCAGAGCUCGAGAACAUCUUCGGAUGCAGAGGAGGCAGGCUUCGGUGCCGCGAUAGCGCCAACGUCCUCAACCUCCAAUGCAUCCCACCACAUGAUGAUGCCUGAAGCGCCUUGGUUUUUUG [A2C G61C A121C]  -1.16
32. GACCAAUCUGCCCUCAGAGCUCGAGAACAUCUUCGUAUGCAGAGGAGGCAAGCUUCGGUUGCGCGAUAGCGCCAACGUCCUCAACCUCCAAUGCAUCCCACCACAUGAUGACGCCUGAAGAGUCUUGGUUUUUUG [G36U G51A G60U U112C C123U]  -1.16
33. GACCAAUCUGCCCUCAGAGCUCGAGAACAUCUUCGGAUACUGAGGAGGCAGGCUUCGGUGGCGCGAUAUCGCCAACGUCCUCAACCUCCAAUGCAUCCCACCACAUGAUGAUGCCUGAAGAGCCUUGGUUUUUUG [G39A A41U G69U]  -0.975
34. GACCAAUCUGCCCUCAGAGUUCGAGAACAUCUUCGGAUGCAGAGGAGGCAGGCUUCGGUGGCGCGAUAGCGCCAACGUCCUCAACCUCCAAUGCAUCCCACCACAUGAUGAAGCCUGAAAAGCCUUGGUUUUUUG [C20U U112A G120A]  -0.897
35. GACUAAUCUGCCCUCAGAGCUCGAGAACAUCUUCGGAUGCAGAGGAGGCAGGCUUCGGUGGCGCGAUAGCGCCAACGUCCUCAACCCCCAAUGCAUCCCACCACAUGAUGAUGCCUGAAGAGCCUUGGUUUUUUG [C4U U87C]  -0.694
36. GACCAAUCUGCACUCAGAGCUCGAGAACAUCUUCGGAUGCAGAGGAGGCAGGCUUCGGUGGCGCGAUAGCGCCAACGUCCUCAACCUCCAAUGCAUCCCACCACAUGAUGCUGCCUGAAGAGCCUUGGUUUUUUG [C12A A111C]  -0.641
37. GACCAAUCUGCCCUCAGAGCUCGAGAACAUCUUCGGAUGCAGGGGAGGCAGGCUUCGGUGGCGCGAUAGCGCCAACGUCCUCAACCUCCAAUGCAUCCCACCACAUGAUGAUGCCUGAAGGGCCUUGGAUUUUUG [A43G A121G U129A]  -0.572
38. GACCAAUCUGCCCUCAGAGCUCGAGAACAUCUUCGGAUGCAGAGGAGGCAGGCUUCGGUGGUGCGAUAGCCCCAACGUCCUCAACCUCCAAUGCAUCCCACCACAUGAUGAUGCCUGAAUCGCCUUGGUUUUUUG [C62U G71C G120U A121C]  0.341
39. GACCAAUCUGCCCUCAGAGCUCGAGAACAUCUUCGGAUGCAAAGGAGGCAGGCUUCGGUGACGCGAUAGCGCCAACGUCCUCUACCUCCAAUGCAUCCCACCACAUGAUGAUGCCUGAAGUGCCUUGGUUUUUUG [G42A G61A A83U A121U]  0.412
40. GACCAAUCUGCCCUCAGAGCUCGAGAACAUCUUCGGAUGCAGAGGAGGCAGGCUUCGGGGGCGCGAUAGCGCCAACGUCCUCAACCUCCAAUGCAUCCCACCACAUGAUGAUGCCUGAAUAGCUUUGGUUUUUUG [U59G G120U C124U]  1.23
41. GACCAAUUUGCCCUCAGAGCUCGAGAACAUCUUCGGAUGCAGAGGAGGCAGGCUUCGGUGGCGCGAUAGCGCCAACGUCCUCAACCUCCAAUGCAUCCCACCACAUGAUGGUGCCUGAAGAGCCUUGGUUUUUUG [C8U A111G]  1.25
42. GACCAAUCUCCCCUCAGAGCUCGAGAACAUCUUCGGAUGCAGAGGAGGCAGGCUUGGGUGGCGCGAUAGCGCCAACGUCCUCAACCUCCAAUGCAUCCCACCACAUGAUGAUGCCUGAAGAGUCUUGGUUUUUUG [G10C C56G C123U]  1.26

— the RNAGym collection of RNA variant scans (doi:10.1073/pnas.2313332121)
